Assay results published in patent US20210221908A1 (LAMKAP BIO BETA, published 2021).

T1: human CEACAM5 on MKN-45 cells (human, UniProt P06731 35-685)
T1 construct: endogenous CEA of MKN-45 gastric adenocarcinoma cells, which also carry CD47 and CEACAM6; UniProtKB P06731; also called CD66e
T1 sequence: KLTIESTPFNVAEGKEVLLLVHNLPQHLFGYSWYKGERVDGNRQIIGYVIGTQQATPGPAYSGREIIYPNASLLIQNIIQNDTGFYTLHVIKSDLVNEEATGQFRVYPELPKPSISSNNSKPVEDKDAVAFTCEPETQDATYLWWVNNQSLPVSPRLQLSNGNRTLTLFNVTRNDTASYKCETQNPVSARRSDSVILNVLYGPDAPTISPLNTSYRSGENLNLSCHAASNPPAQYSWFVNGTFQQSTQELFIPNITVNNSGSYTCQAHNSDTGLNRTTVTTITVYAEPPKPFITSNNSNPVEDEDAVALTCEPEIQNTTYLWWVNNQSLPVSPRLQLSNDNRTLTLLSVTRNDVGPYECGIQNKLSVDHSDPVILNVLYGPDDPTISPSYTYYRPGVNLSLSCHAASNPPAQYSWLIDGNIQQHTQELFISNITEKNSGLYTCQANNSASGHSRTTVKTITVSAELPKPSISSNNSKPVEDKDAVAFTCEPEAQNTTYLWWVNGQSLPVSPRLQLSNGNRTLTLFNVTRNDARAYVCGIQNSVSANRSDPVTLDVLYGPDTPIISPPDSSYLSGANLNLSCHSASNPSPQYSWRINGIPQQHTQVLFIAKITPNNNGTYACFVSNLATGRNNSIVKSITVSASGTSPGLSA

T2: commercial shed CEA (BioRad) (human, UniProt P06731 35-685, limits assumed)
T2 sequence: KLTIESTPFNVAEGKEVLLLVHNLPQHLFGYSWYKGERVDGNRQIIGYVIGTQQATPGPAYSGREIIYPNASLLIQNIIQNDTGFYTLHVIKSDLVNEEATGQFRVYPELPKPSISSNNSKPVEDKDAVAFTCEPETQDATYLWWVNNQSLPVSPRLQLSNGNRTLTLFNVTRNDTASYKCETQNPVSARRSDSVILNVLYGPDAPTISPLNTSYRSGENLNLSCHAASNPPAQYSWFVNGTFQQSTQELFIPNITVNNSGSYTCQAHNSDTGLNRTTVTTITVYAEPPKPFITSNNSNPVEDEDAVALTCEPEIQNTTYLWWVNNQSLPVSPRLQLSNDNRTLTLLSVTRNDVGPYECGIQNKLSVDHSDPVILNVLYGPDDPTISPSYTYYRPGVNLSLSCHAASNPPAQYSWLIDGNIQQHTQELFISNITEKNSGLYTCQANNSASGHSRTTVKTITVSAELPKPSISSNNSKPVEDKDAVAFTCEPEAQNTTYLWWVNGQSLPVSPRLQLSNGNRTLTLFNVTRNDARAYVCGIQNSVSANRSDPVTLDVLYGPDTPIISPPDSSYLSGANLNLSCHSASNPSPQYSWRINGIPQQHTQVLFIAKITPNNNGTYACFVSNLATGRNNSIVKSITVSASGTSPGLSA

T3: human CEACAM6 on MKN-45 cells (human, UniProt P40199 35-320)
T3 construct: whole, on cells
T3 sequence (looked up): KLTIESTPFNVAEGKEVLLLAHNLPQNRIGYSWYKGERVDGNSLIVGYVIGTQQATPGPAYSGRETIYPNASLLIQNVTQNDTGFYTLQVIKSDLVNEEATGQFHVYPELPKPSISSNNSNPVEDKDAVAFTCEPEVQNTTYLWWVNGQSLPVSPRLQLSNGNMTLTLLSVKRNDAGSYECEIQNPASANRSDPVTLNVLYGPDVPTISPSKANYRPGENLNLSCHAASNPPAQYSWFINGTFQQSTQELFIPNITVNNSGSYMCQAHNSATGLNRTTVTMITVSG


Assays:
[1] = target: T1, human CEACAM5 on MKN-45 cells; test: flow cytometry on MKN45 CEA+ cancer cells (also carry CD47)
Procedure: (§1) Cells are harvested, counted, checked for viability and resuspended at 3×10⁶ cells/ml in FACS buffer (PBS 2% BSA, 0.1% NaN3). 100 μl of the cell suspension are distributed in V-bottom 96-well plates (3×10⁵ cells/well). The supernatant is removed by centrifugation 3 minutes at 4° C., 1300 rpm. Increasing concentrations of the antibody according to the invention are then added into the wells and incubated for 15 minutes at 4° C. Cells are washed twice with cold FACS buffer and re-incubated for further 15 minutes at 4° C. with the PE (R-phycoerythrin)-conjugated mouse anti-human IgG Fc secondary antibody (SouthernBiotech, pre-diluted 1:100 in FACS buffer). Cells are washed twice with cold FACS buffer and resuspended in 300 μl FACS buffer with 1:15000-diluted SytoxBlue (Life Technologies). Fluorescence is measured using a Cytoflex […]. Binding curves and EC50 values are obtained and calculated using GraphPad Prism? software. In the same manner binding of MAB CEA or MAB CEA1 to MKN-45 cells can be tested.

[2] = target: T4, human CD47 on MKN45 cells (human, UniProt Q08722 19-323); test: inhibition of SIRPα-mouseFc binding to CD47 on MKN45 cells, imaging (CX5); column 'SIRPα inhibition potency'
T4 construct: whole, on cells; also called IAP
Source text: Experimental set-up for the measurement of the SIRPα inhibition potency data shown for bispecific antibodies of this invention (results see table 2):
The detection of bound SIRPα cell-based assay monitoring the interaction of soluble SIRPα with human CD47 expressed at the surface of MKN45 is used for the detection of the blocking activity. Dose-response experiments with bispecific antibodies according to the invention allow determination of an IC50 value.
MKN45 cancer cells, expressing both CD47 and CEACAM5, are stained with CFSE violet to allow the imaging system (CX5) to detect the cells. Briefly, 3,000 stained MKN45 cells per well are seeded in a 384 optical well plate (Costar) and incubated for 50 minutes with increased concentrations of bispecific antibodies of the invention (1.9 pM to 333 nM, in quadruplicates). Then, a fixe concentration of SIRPα—mouseFc premixed with anti-mouse IgG-Fc AF647 coupled antibody (Jackson Immunoresearch diluted 1:2000) is added at 50 ng/mL final. After an incubation of 3H30 plates are acquired with the imaging system (CX5, Thermofisher) and fluorescence signals emitted by the detected bound SIRPα is recorded by the software dedicated to the imaging system. Fluorescence signals are plotted according to the dose range tested and IC50 are calculated by the software (Prism, Graphpad).

[3] = target: T2, commercial shed CEA (BioRad); test: cell-based or functional assay
[4] = target: T1, human CEACAM5 on MKN-45 cells; test: flow cytometry (FACS) on MKN-45 cells, without shed CEA
[5] = target: T1, human CEACAM5 on MKN-45 cells; test: flow cytometry on MKN45 CEA+ cancer cells (also carry CD47); MKN45 CEA+ cancer cells
Procedure: as §1

[6] = target: T3, human CEACAM6 on MKN-45 cells; test: statement in the legend of FIG. 21A (FACS on MKN-45 cells)
Procedure: Binding to target cells (MKN-45) expressing CD47, CEACAM5 and CEACAM6 was assessed by FACS.
as §1

[7] = target: T1, human CEACAM5 on MKN-45 cells; test: flow cytometry (FACS) on MKN-45 cells, which express CD47, CEACAM5 and CEACAM6

Binder	EC50 [1]	IC50 [2]	shift of EC50 of the phagocytosis index curve of MKN-45 cells by 200 ng/mL shed CEA (FIG. 20B) [3]	EC50 (read off the curve) [4]	EC50 [5]	binding result [6]	EC50 (read off the curve) [7]
K2AC25 CEAxCD47 bispecific antibody (bispecific antibody, human IgG1, kappa, lambda, kappa-lambda body, human IgG1, common heavy chain; CEA arm light chain 2F4 (AC25)) heavy: not shown light 1: not shown light 2: QSVLTQPPSVSAAPGQKVTISCSGSSSNIGITPVSWYQQLPGTAPKLLIYSNNFRPSGIPDRFSGSKSGTSATLGITGLQTGDEADYYCGTWDRTGHEIRPVFGGGTKLTVLGQPKAAPSVTLFPPSSEELQANKATLVCLISDFYPGAVTVAWKADSSPVKAGVETTTPSKQSNNKYAASSYLSLTPEQWKSHRSYSCQVTHEGSTVEKTVAPTECS	13 nM	0.22 nM	–	–	–	–	–
K2AC28 CEAxCD47 bispecific antibody (bispecific antibody, human IgG1, kappa, lambda, kappa-lambda body, human IgG1, common heavy chain; CEA arm light chain C11 (AC28)) heavy: not shown light 1: not shown light 2: NFMLTQPHSVSESPGKTVTISCTRSSGSINDITVHWYQQRPGSSPTTVIYGYNARPSGVPDRFSGSIDSSSNSASLTISGLKTEDEADYYCQSWDGHGSAYVFGGGTKLTVLGQPKAAPSVTLFPPSSEELQANKATLVCLISDFYPGAVTVAWKADSSPVKAGVETTTPSKQSNNKYAASSYLSLTPEQWKSHRSYSCQVTHEGSTVEKTVAPTECS	52.5 nM	0.95 nM	–	–	–	–	–
K2AC18 CEAxCD47 bispecific antibody (bispecific antibody, human IgG1, kappa, lambda, kappa-lambda body, human IgG1, common heavy chain; CEA arm light chain 1A2 (AC18)) heavy: not shown light 1: not shown light 2: SYVLTQPPSVSVAPGKTARITCGGNGIGDASVHWYQQKPGQAPVLVIYSTTTRPSGIPERFSGSNSGNTATLTISRVEAGDEADYYCQVWDGFGPRHRAVFGGGTKLTVLGQPKAAPSVTLFPPSSEELQANKATLVCLISDFYPGAVTVAWKADSSPVKAGVETTTPSKQSNNKYAASSYLSLTPEQWKSHRSYSCQVTHEGSTVEKTVAPTECS	132 nM	7 nM	–	–	–	–	–
K2AC5 CEAxCD47 bispecific antibody (bispecific antibody, human IgG1, kappa, lambda, kappa-lambda body, human IgG1, common heavy chain; CD47 arm light chain KA3 (K2), CEA arm light chain 1D9 (AC5)) heavy: not shown light 1: not shown light 2: QSVLTQPPSVSAAPGQKVTISCSGSSSNIGYGLVSWYQQLPGTAPKLLIYAGNLRPSGIPDRFSGSKSGTSATLGITGLQTGDEADYYCGTWDFNYGVVFGGGTKLTVLGQPKAAPSVTLFPPSSEELQANKATLVCLISDFYPGAVTVAWKADSSPVKAGVETTTPSKQSNNKYAASSYLSLTPEQWKSHRSYSCQVTHEGSTVEKTVAPTECS	–	0.4 nM	< 4 fold	~0.3 µg/mL	11.3 nM	–	–
K2AC22 CEAxCD47 bispecific antibody (bispecific antibody, human IgG1, kappa, lambda, kappa-lambda body, human IgG1, common heavy chain; CEA arm light chain 1G6 (AC22)) heavy: not shown light 1: not shown light 2: QSVLTQPPSVSAAPGQKVTISCSGSSSNIANGIVSWYQQLPGTAPKLLIYFDNLRPSGIPDRFSGSKSGTSATLGITGLQTGDEADYYCGTWDFSYGIVFGGGTKLTVLGQPKAAPSVTLFPPSSEELQANKATLVCLISDFYPGAVTVAWKADSSPVKAGVETTTPSKQSNNKYAASSYLSLTPEQWKSHRSYSCQVTHEGSTVEKTVAPTECS	16.5 nM	0.37 nM	< 4 fold	–	–	no binding	~1 µg/mL
